Measured values: publication PMC7175333

Legend:
[1] = target: DLnano_LS_GT8 (DNA‐launched lumazine synthase nanoparticle decorated with eOD‐GT8, produced in vivo) (Aquifex aeolicus); assay: native gel or EMSA; pseudo-native PAGE (3-8% Tris-acetate gel, LDS buffer at room temperature, no boiling) of mouse muscle homogenates 4 d.p.i., blotted with VRC01; SEC-purified recombinant standards alongside
[2] = target: LS_HA_NC99 (lumazine synthase nanoparticle displaying the receptor binding domain of the head of influenza hemagglutinin, H1N1 A/New Caledonia/20/1999) (Aquifex aeolicus | influenza A virus H1N1 A/New Caledonia/20/1999); assay: SEC + SEC-MALS + other: negative stain electron microscopy

Row | Substance | stoichiometry N [1] | stoichiometry N [2]
1 | DLnano_LS_GT8 (DNA‐launched lumazine synthase nanoparticle decorated with eOD‐GT8, produced in vivo) | 60 | 
2 | LS_HA_NC99 (lumazine synthase nanoparticle displaying the receptor binding domain of the head of influenza hemagglutinin, H1N1 A/New Caledonia/20/1999) |  | 60
